IntAct's records for PubMed 11356188

B1: Circadian clock oscillator protein KaiA (Synechococcus elongatus (strain PCC 7942)), Q79PF6 (parent)
chain: MLSQIAICIWVESTAILQDCQRALSADRYQLQVCESGEMLLEYAQTHRDQIDCLILVAANPSFRAVVQQLCFEGVVVPAIVVGDRDSEDPDEPAKEQLYHSAELHLGIHQLEQLPYQVDAALAEFLRLAPVETMADHIMLMGANHDPELSSQQRDLAQRLQERLGYLGVYYKRDPDRFLRNLPAYESQKLHQAMQTSYREIVLSYFSPNSNLNQSIDNFVNMAFFADVPVTKVVEIHMELMDEFAKKLRVEGRSEDILLDYRLTLIDVIAHLCEMYRRSIPRET
partner: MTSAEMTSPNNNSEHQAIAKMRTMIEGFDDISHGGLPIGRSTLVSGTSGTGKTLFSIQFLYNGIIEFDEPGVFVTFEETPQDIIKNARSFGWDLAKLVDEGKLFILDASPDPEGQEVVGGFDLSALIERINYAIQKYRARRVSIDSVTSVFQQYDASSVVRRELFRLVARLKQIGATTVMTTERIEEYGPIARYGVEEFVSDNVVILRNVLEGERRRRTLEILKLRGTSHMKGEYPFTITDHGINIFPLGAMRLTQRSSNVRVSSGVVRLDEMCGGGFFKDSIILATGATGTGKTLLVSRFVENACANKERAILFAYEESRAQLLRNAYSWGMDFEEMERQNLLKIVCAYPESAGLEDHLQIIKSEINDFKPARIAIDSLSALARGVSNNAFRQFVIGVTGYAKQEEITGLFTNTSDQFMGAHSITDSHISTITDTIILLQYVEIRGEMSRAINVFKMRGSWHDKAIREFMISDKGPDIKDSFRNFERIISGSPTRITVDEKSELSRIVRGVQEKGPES
B2: Circadian clock oscillator protein KaiC (Synechococcus elongatus (strain PCC 7942)), Q79PF4 (parent)
chain: B1 partner
partner: B1 chain

Variants of: B1
Settings: with kaic_syne7 kaiC, Q79PF4

Variant | effect of a mutation on the interaction
R249H | decreasing interaction

Variants of: B1
Settings: with kaic_syne7 kaiC, Q79PF4
Remark: another data set of the same source

Variant | effect of a mutation on the interaction
Y166C | decreasing interaction

Variants of: B2
Settings: with kaia_syne7 kaiA, Q79PF6

Variant | effect of a mutation on the interaction
R215C | decreasing interaction
P248K | decreasing interaction

Variants of: B2
Settings: with kaia_syne7 kaiA, Q79PF6
Remark: another data set of the same source

Variant | effect of a mutation on the interaction
T495A | decreasing interaction
